B1: N-Cad/CTF2: chicken cytoplasmic domain of N-cadherin (N-Cad/CTF2) inserted into vector pECE, expressed in L cells (protein)
chain: KRRDKERQAKQLLIDPEDDVRDNILKYDEEGGGEEDQDYDLSQLQQPDTVEPDAIKPVGIRRLDERPIHAEPQYPVRSAAPHPGDIGDFINEGLKAADNDPTAPPYDSLLVFDYEGSGSTAGSLSSLNSSSSGGEQDYDYLNDWGPRFKKLADMYGGGDD

Key:
N-cadherin = assay: In vitro ε-cleavage assay, membranes from mouse brain neuronal cultures; format: biochemical; conditions: PS1+/− neurons, L-685,458 (0.5 μM)
Description: Primary, neuronal cultures. Mixed hippocampal and cortical neuronal cultures were prepared from E18 mouse or rat brains as described by Banker and Goslin (1991) Culturing Nerves Cells, London, MIT Press. Neurons were maintained 10 days in vitro in glial conditioned MEM containing 2% glucose and N2 supplements as described by Bottenstein and Sato (1979) Proc. Natl. Acad. Sci. USA 76: 514-517, and then were stimulated for 15 minutes with Mg2+-free Hanks' balanced salt solution (HBSS, Sigma) containing KCl (50 mM), L-Glutamate ([…]) or NMDA ([…]). D-APV ([…]) was applied 15 minutes before stimulation.
In vitro γ-secretase-like ε-cleavage assay. Cells were washed in PBS, resuspended in 1 ml of 4° C. hypotonic buffer (10 mM MOPS, pH 7.0, 10 mM KCl) and homogenized on ice. A post-nuclear supernatant was prepared by centrifugation at 1000×g for 15 minutes at 4° C. Crude membranes were isolated from the post-nuclear supernatant by centrifugation at 16,000×g for 40 minutes at 4° C. The membranes were then resuspended in […] of assay buffer (150 mM sodium citrate, pH 6.4, 1× Complete protease inhibitor cocktail), and incubated at 37° C. for 2 hours. Samples were either analyzed directly by WB or separated into pellet (P100) and supernatant (S100) fractions by ultracentrifugation for 1 hour at 100,000×g at 4° C. The S100 and P100 fractions were then analyzed by WB.

CHOP-response elements = assay: CHOP-mediated transactivation (luciferase) in L cells; format: cell-based; conditions: L cells transfected with pN-Cad/CTF2, FIG. 9A
Description: Transactivation assays. CRE-dependent transactivation was measured in the absence or presence of overexpression of PKA (pFC-PKA, Stratagene) by cotransfection with CRE-luciferase reporter plasmid (pCRE-Luc, Stratagene) and pSV-β-galactosidase vector (Promega) to evaluate transfection efficiency. CHOP-mediated transactivation was measured by cotransfection with the Gal4-fusion trans-activator plasmids (pFA-CHOP and pFR-Luc, Stratagene). 30 hours after transfection, luciferase and β-galactosidase activities were determined following manufacturer's instructions using a TD-20/20 luminometer (Turner Designs) and a DU-64 spectrophotometer (Beckman). Values were normalized to β-galactosidase activity and protein concentration.
Stimulation of synaptic NMDA receptor leads to phosphorylation of transcription factor CREB that then recruits transcription co-activator CBP, a process ultimately leading to activation of CREB-mediated gene expression (Impey and Goodman (2001) Sci STKE, PE1). […] CRE-dependent transactivation was measured in the absence (−) or presence (+) of […] PKA (pFC-PKA) using CRE-luciferase reporter plasmid (pCRE-Luc) and pSV-β-galactosidase vector. CHOP-mediated transactivation was measured by […] with the Gal4-fusion trans-activator plasmids (pFA-CHOP and pFR-Luc) and pSV-β-galactosidase vector. […]

CBP = molecular target: T1, CBP (Mus musculus, UniProt P45481); assay: Nuclear/cytosolic fractionation of transfected L cells (Western blot); format: cell-based
T1 construct: a process that relies on endogenous CBP and CREB; endogenous in cells; host or cells: L cells transfected with vector or pN-Cad/CTF2
T1 sequence (P45481 whole entry): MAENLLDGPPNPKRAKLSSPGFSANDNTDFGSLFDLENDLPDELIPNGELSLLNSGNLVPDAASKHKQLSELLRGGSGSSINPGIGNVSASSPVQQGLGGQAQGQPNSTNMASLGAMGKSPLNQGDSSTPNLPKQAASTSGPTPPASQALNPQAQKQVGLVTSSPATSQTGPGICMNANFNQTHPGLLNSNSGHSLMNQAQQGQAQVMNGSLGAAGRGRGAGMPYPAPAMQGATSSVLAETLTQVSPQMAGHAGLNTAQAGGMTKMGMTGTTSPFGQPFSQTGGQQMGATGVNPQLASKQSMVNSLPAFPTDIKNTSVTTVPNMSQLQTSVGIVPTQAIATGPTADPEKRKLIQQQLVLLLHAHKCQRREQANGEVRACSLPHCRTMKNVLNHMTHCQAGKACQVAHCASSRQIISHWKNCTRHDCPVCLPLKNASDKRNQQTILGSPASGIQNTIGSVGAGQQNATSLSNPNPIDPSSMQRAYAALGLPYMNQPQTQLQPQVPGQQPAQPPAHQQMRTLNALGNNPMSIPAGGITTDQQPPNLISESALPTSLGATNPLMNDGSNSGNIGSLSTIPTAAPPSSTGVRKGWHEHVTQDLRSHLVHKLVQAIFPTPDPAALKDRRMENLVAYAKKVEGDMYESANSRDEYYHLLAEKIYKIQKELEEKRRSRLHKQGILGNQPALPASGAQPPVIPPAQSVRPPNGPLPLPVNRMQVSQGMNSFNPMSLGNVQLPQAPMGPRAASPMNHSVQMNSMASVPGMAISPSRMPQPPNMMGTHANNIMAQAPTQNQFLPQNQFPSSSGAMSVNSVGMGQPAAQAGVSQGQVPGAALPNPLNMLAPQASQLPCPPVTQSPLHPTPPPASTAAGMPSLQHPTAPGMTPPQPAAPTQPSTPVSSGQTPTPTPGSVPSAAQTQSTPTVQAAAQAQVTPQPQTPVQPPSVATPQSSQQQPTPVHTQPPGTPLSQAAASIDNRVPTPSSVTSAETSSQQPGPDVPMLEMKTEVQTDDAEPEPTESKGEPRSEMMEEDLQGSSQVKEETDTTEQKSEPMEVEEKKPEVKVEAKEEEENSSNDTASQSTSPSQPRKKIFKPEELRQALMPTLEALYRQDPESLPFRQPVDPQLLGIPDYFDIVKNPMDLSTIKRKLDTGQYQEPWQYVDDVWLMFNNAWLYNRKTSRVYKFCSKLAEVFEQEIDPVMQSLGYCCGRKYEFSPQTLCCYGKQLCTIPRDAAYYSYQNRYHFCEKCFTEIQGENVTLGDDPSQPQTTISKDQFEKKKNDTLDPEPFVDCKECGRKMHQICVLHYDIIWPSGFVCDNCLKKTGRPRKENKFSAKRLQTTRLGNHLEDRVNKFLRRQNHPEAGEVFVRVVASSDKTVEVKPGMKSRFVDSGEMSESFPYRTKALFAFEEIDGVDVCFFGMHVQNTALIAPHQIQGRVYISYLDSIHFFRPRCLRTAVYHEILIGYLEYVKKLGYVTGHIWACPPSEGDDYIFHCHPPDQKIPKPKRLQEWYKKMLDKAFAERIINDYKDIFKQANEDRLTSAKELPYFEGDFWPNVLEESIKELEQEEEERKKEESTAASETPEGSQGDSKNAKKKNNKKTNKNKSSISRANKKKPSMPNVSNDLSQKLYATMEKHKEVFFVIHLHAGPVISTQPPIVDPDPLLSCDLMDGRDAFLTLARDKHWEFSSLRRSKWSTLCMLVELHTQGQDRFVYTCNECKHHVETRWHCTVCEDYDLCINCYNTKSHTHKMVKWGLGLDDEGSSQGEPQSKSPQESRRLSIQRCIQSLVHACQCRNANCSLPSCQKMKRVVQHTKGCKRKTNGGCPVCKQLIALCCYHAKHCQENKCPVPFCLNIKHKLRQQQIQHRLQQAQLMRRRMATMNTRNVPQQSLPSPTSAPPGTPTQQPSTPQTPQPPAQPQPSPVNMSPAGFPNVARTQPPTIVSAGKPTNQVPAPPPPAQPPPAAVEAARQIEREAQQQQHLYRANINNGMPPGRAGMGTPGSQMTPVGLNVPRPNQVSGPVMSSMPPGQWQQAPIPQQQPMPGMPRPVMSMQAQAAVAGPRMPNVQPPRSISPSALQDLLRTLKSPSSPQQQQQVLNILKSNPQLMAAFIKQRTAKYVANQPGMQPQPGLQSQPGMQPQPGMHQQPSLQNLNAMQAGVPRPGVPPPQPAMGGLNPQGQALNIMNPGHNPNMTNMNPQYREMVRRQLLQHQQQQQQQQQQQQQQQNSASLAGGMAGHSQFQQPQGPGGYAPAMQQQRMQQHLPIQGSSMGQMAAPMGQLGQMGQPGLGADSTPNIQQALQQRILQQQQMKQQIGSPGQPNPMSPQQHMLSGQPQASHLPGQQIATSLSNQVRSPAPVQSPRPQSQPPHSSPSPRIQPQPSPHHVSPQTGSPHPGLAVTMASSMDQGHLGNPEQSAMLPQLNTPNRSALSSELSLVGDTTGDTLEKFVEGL
Description: Subcellular fractionation. Transfected cells were washed in PBS, placed into 1 ml of buffer A (20 mM Tris-HCl, pH 7.5, 0.25 M sucrose, 10 mM EGTA, 2 mM EDTA, Ix Complete protease inhibitor cocktail), and then passed through a 27 gauge needle 10 times. Obtained lysates were centrifuged at 500×g for 10 minutes and pellets (nuclear fraction) were washed twice with 1 ml of buffer A containing 0.1% Triton X-100 and solubilized by sonication in RIPA buffer. Supernatants were centrifuged at 120,000×g for 45 minutes at 4° C. to separate cytosolic and crude membrane fractions. A 50 μg protein aliquot from the nuclear and cytosolic fractions was analyzed on WBs.
To determine how N-Cad/CTF2 affects CREB-mediated transcription, the following experiments were performed. L cells transfected either with vector (vector) or pN-Cad/CTF2 (N-Cad/CTF2) plasmids were fractionated into nuclear and cytosolic fractions, and probed on WBs with anti-CBP (FIG. 11A, panel a), anti-N-cadherin (FIG. 11A, panel b), anti-β-tubulin (FIG. 11A, panel c) or anti-phosphorylated CREB (P-CREB; FIG. 11A, panel d) antibodies. Extract from pN-Cad/CTF2-transfected L cells was immunoprecipitated either with non-immune serum (NI) or with antibodies against CBP (CBP), β-tubulin (β-Tub), E-cadherin (C36) or N-cadherin (C32). Obtained IPs were probed with anti-CBP (FIG. 11B, upper panel), anti-N-cadherin (FIG. 11B, middle panel) or anti-β-tubulin (FIG. 11B, lower panel) antibodies. For reference, cell lysate was also probed (FIG. 11B, first lane). L cells transiently transfected with pN-Cad/CTF2 were analyzed by immunofluorescence staining. Cells were triple-labeled with DAPI (blue), anti-CBP (red) and anti-N-cadherin (C32; green) antibodies. Nuclear extract from pN-Cad/CTF2-transfected L cells were incubated with biotinylated double-stranded DNA probes containing binding sequence for either CREB (FIG. 11C, left panel) or MEF-1 (FIG. 11C, right panel). […]

Row | Molecule | N-Cad/CTF2 peptide (N-cadherin) | transactivation by CHOP-response elements (CHOP-response elements) | change of CREB phosphorylation (CBP; N-Cad/CTF2 overexpression, FIG. 11A panel d) | localization of phosphorylated CREB (CBP; transfection with N-Cad/CTF2, FIG. 11A panel d) | nuclear and cytosolic CBP (CBP; transfection with N-Cad/CTF2 vs vector, FIG. 11A)
1 | CC(C)C[C@H](NC(=O)[C@H](Cc1ccccc1)C[C@@H](O)[C@H](Cc1ccccc1)NC(=O)OC(C)(C)C)C(=O)N[C@@H](Cc1ccccc1)C(N)=O [L-685,458] | inhibited | – | – | – | –
2 | B1 | – | not affected | not detected | no effects | nuclear CBP decreased with a concomitant increase in cytosolic CBP

— patent US7884067B2, “Peptides derived from cadherin and methods of use thereof” (Mount Sinai School of Medicine of New York University, priority 2001, dated 2011)
